Key:
[1] = biological target: T1, VEGFR-2 (KDR) (Homo sapiens, UniProt P35968); test: [125I]VEGF binding in transfected PAEKDR cell lines; details: PAEKDR cells expressing mutant TIMP3 vs vector
T1 construct: To determine whether these receptor isoforms represent full-length VEGFR-2; expressed in transfected cells; host or cells: porcine aortic endothelial (PAE) cells
Method: PAEKDR cells were transfected with TIMP3 cDNA or empty vector using Lipofectamine reagent (Gibco-BRL Rockville, Md.). Stable clones were isolated using Hygromycin selection.
After washing, the cell monolayers were solubilized with lysis buffer (20 mM Tris HCl pH 7.5, 1% triton X 100 and 10% glycerol), and the radioactivity measured in a gamma counter.

[2] = system: PAEKDR cells; test: VEGF-stimulated migration (modified Boyden chamber) of transfected PAEKDR cells; format: cell-based, porcine; details: VEGF 50 ng/ml
Method: A modified Boyden chamber assay was carried out as described previously 34. Briefly, 8.0 μm pore PVPF polycarbonate membranes were pre-coated with 100 μg/ml collagen type I in 0.2 N acetic acid (Cohesion technologies, INC. Pala Alto, Calif.). […] Chamber was then incubated for 4 hrs at 37° C. in a 5% CO2 humidified incubator. Cells remaining on the top of the filter were removed. Cells on the bottom surface of the filter were fixed, stained and mounted. The number of migrating cells per well was counted microscopically.

[3] = system: surface KDR; test: Surface KDR immunofluorescence staining; format: cell-based; details: clone KDR-2 antibody; data not shown
Method: (§1) For immunostaining, subconfluent cells cultured on Falcon cultureslides (BD, Biosciences) were used. For surface KDR detection, cells were fixed in 1% paraformaldehyde for 10 min at 4° C. Following blocking with 1% BSA cells were incubated with anti-extracellular VEGFR-2 monoclonal antibody for 1 h at room temperature. Surface KDR was detected with biotinylated anti-mouse […] (1:1000) and Texas Red avidin D (1:1500) using standard procedures. […] The cells were fixed with 3.7% paraformaldehyde in PBS for 30 min at 4° C. and permeabilized with 0.2 Triton X-100 for 20 min at room temperature. Following rinsing with PBS the cells were incubated with fluorescein isothiocyanate (FITC)-labeled phalloidin in PBS (0.66 μg/ml, Sigma) for 20 min at room temperature washed with PBS and analyzed by fluorescence microscopy.

[4] = system: PAEKDR cells; test: VEGF-stimulated actin reorganization / membrane ruffles; format: cell-based, porcine; details: 50 ng/ml VEGF for 15 min
Method: as §1

[5] = system: ERK1 (p44) and ERK2 (p42); test: VEGF-stimulated ERK1/2 phosphorylation in transfected PAEKDR cells (Western blot); format: cell-based; details: mutant cells; data not shown
Method: Cell fractions or immunoprecipitates of the lysates with the indicated antibodies were subjected to SDS-PAGE. Proteins were detected with either a HRP-conjugated anti-rabbit or anti mouse IgG antibody (Amersham Pharmacia Biotech., Piscataway, N.J.) followed by ECL. The blots were restripped with Western ReProbe™ solution (Genotech) for 30 minutes and reprobed as indicated.
Activation of MAP kinase is a known activated VEGFR-2 downstream signaling event. We measured the phosphorylation of two MAP kinases, ERK1 (p44) and ERK2 (p42) by western blot analysis of membrane fractions in WT and mutant ECs.

[6] = system: soluble VEGFR-2; test: Soluble VEGFR-2 (sKDR) in conditioned medium (ELISA); format: cell-based, human; details: mutant cells; data not shown
[7] = biological target: T2, KDR (Homo sapiens, UniProt P35968); test: VEGF-stimulated KDR tyrosine phosphorylation in membrane fractions (Western blot); format: cell-based; details: mutant cells; data not shown
T2 construct: To determine whether these receptor isoforms represent full-length VEGFR-2; expressed in transfected cells; host or cells: porcine aortic endothelial (PAE) cells
T2 sequence (P35968 20-1356): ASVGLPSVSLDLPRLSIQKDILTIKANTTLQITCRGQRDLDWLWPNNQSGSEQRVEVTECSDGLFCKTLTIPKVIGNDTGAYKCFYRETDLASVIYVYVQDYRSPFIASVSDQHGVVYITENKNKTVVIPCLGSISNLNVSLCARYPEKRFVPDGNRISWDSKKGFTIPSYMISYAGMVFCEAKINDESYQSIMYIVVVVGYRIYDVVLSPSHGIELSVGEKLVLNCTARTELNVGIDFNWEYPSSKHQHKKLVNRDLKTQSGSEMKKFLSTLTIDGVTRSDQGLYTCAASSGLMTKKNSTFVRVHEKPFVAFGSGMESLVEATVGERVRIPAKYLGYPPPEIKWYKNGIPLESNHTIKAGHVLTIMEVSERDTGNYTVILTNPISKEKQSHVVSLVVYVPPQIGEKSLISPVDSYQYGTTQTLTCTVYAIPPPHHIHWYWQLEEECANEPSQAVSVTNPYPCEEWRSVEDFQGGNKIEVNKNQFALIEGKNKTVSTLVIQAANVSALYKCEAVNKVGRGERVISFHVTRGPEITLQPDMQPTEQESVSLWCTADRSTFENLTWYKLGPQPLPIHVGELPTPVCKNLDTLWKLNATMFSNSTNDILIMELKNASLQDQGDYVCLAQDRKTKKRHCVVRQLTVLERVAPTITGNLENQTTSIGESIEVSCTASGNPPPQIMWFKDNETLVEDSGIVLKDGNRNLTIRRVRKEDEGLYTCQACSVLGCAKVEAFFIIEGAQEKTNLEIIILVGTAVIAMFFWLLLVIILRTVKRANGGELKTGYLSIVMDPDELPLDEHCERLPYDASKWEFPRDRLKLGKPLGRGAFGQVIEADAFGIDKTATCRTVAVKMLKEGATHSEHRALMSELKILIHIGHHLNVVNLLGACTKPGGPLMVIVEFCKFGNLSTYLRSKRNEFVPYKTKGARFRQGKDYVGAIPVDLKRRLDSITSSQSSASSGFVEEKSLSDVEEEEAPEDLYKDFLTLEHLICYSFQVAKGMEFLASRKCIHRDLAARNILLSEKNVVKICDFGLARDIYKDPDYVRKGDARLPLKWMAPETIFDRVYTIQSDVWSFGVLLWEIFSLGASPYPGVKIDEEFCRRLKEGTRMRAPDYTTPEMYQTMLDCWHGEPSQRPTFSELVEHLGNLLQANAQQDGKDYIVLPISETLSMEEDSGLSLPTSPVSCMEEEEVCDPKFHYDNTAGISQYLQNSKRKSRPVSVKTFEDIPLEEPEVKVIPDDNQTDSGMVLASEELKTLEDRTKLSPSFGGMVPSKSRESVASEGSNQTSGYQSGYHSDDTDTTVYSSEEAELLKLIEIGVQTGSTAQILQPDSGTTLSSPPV
Method: 2 day serum free conditioned medium (CM) was collected from subconfluent cells cultured on six-well plates (Costar). In some cases the CM was further concentrated with heparin-agarose gels (Bio-rad). The cell monolayer was dislodged from the culture plates following a 10 min incubation in Ca2+, Mg2+ free phosphate buffered saline (PBS) containing 2.5 mM EDTA. After several rinses in PBS and water, the ECM was scraped in a small volume of electrophoresis sample buffer without reducing agent for analyses. Plasma membrane (PM) fractions were prepared from cells centrifuged at 500 g and 4° C. for 5 min The supernatant was discarded and the cell pellets were resuspended in PBS containing protease inhibitors, lysed with a 26-gauge syringe needle, and centrifuged at 3,000 g at 4° C. for 15 minutes. The supernatant was centrifuged at […] at 4° C. for 1 hr. The PM pellets were suspended in lysis buffer containing protease inhibitors. In some instances the membrane fraction of cells was prepared using ProteoExtract Subcellular Proteome Extaction Kit (EMD Biosciences, Inc).
Cell fractions or immunoprecipitates of the lysates with the indicated antibodies were subjected to SDS-PAGE. Proteins were detected with either a HRP-conjugated anti-rabbit or anti mouse IgG antibody (Amersham Pharmacia Biotech., Piscataway, N.J.) followed by ECL. […]

[8] = system: MMPs; test: Reverse zymography of ECM and CM of transfected PAEKDR cells; format: biochemical; details: PAEKDR cells expressing WT or mutant TIMP3
Method: Conditioned medium, cell lysates and ECM fractions from transfected cells were prepared as described previously (Qi et al., 2002). Equal amounts of protein were loaded onto a 12% gel with 1 mg/ml gelatin plus RPE cell-conditioned media, as a source of MMPs, for reverse zymography and processed as described previously (Pavloff et al., 1992).

[9] = system: PAEKDR cells; test: Tube formation assay in type 1 collagen gels; format: cell-based, porcine; details: 50 ng/ml VEGF; three-dimensional collagen gels
Method: Type 1 collagen was mixed with 10×DMEM and 0.1 M NaOH (8:1:1), adjusted to a solution containing 10 μg/ml growth factor reduced matrigel matrix (BD, Biosciences), and then distributed in 48-well dishes. […] After 4 h of incubation at 37° C., a second layer of collagen was added, and cultures were kept under the same conditions as above described. Tube formation was examined using a phase-contrast microscopy at the indicated time points.

T1 sequence (P35968 20-1356): as above

increase in [125I] VEGF binding [1]: 2-3 fold | level of phosphorylated KDR after VEGF stimulation vs mock cells [7]: ~2 fold
B1: mutant TIMP3: Sorsby fundus dystrophy-related S156C mutant TIMP3 expressed in PAEKDR endothelial cells (protein)
chain: CTCSPSHPQDAFCNSDIVIRAKVVGKKLVKEGPFGTLVYTIKQMKMYRGFTKMPHVQYIHTEASESLCGLKLEVNKYQYLLTGRVYDGKMYTGLCNFVERWDQLTLSQRKGLNYRYHLGCNCKIKSCYYLPCFVTSKNECLWTDMLSNFGYPGYQCKHYACIRQKGGYCSWYRGWAPPDKSIINATDP
VEGF-stimulated migration of cells expressing TIMP3 variant [2]: accentuated migratory response towards VEGF | surface KDR labeling relative to empty vector or WT-TIMP3 cells [3]: increased fluorescent labeling for surface KDR | VEGF-stimulated formation of membrane ruffles [4]: a majority of mutant cells showed more striking edge ruffles | increase of VEGF-stimulated ERK1/2 phosphorylation [5]: 2-3 fold | cleaved sVEGFR-2 in the CM, more than mock cells [6]: 7- to 8 fold | MMP inhibitory activity in ECM and CM (reverse zymography) [8]: minimal MMP inhibitory activity | VEGF-stimulated tube formation [9]: forming extensive tubular networks, but by day 5 the tubular structures started to regress and collapse

— patent US8431396B2, “Anti-angiogenic peptides” (The Cleveland Clinic Foundation, priority 2003, dated 2013)
